Biological target: recombinant soluble homotrimeric HA of A/common magpie/Hong Kong/5052/07 (H5N1) (Influenza A virus A/common magpie/Hong Kong/5052/2007 (H5N1))
Test: HA microarray, control mAb
Details: remark: other sources report otherwise

B1: TCN-504 (3251_K17) (antibody, V domains shown)
VH: QVQLQESGPGLVKPSETLSLTCAVSGVSISNIDFYWGWIRQPPGKGLEWIGNIYYTGITFYNPSLSSRVAISIDTSKNQFSLTLTSVTAADTAMYYCARHYGDSEAINDAFDIWGQGTMLTVSS
VL: EIVMTQSPATLSVSPGERATLSCRASQSVGNSLAWYQQRPGQAPRLLIYGASTRATGIPPRFSGSGSGTEFTLTISSLQTEDFAVYYCQQYINWRPLSFGGGTKVEIK
  Trimeric HA Binding RLU: 17000 RLU
